Experiments:
DNP-BSA [1] = target: DNP-BSA (UniProt P02769); test: indirect ELISA, DNP-BSA coated 3 ug/ml, antibody at 7.813 ng/ml
DNP-BSA [2] = target: DNP-BSA (UniProt P02769); test: indirect ELISA, DNP-BSA coated 3 ug/ml, antibody at 125 ng/ml
DNP-BSA [3] = target: DNP-BSA (UniProt P02769); test: indirect ELISA, DNP-BSA coated 3 ug/ml, antibody at 62.5 ng/ml
DNP-BSA [4] = target: DNP-BSA (UniProt P02769); test: indirect ELISA, DNP-BSA coated 3 ug/ml, antibody at 31.25 ng/ml
DNP-BSA [5] = target: DNP-BSA (UniProt P02769); test: indirect ELISA, DNP-BSA coated 3 ug/ml, antibody at 15.625 ng/ml
DNP-BSA [6] = target: DNP-BSA (UniProt P02769); test: BLI, antibody captured on AMC sensor, DNP-BSA in solution
DNP-BSA [7] = target: DNP-BSA (UniProt P02769); test: indirect ELISA on DNP-BSA, antibody stored 21 days at 4 C, at 15.625 ng/ml
DNP-BSA [8] = target: DNP-BSA (UniProt P02769); test: indirect ELISA on DNP-BSA, antibody stored 21 days at 37 C, at 125 ng/ml
DNP-BSA [9] = target: DNP-BSA (UniProt P02769); test: indirect ELISA on DNP-BSA, antibody stored 21 days at 4 C, at 125 ng/ml
DNP-BSA [10] = target: DNP-BSA (UniProt P02769); test: indirect ELISA on DNP-BSA, antibody stored 21 days at -80 C, at 125 ng/ml
DNP-BSA [11] = target: DNP-BSA (UniProt P02769); test: indirect ELISA on DNP-BSA, antibody stored 21 days at -80 C, at 15.625 ng/ml
DNP-BSA [12] = target: DNP-BSA (UniProt P02769); test: indirect ELISA on DNP-BSA, antibody stored 21 days at 37 C, at 15.625 ng/ml

Chain of UniProt P02769 (P02769 25-607 limits assumed, form in doubt): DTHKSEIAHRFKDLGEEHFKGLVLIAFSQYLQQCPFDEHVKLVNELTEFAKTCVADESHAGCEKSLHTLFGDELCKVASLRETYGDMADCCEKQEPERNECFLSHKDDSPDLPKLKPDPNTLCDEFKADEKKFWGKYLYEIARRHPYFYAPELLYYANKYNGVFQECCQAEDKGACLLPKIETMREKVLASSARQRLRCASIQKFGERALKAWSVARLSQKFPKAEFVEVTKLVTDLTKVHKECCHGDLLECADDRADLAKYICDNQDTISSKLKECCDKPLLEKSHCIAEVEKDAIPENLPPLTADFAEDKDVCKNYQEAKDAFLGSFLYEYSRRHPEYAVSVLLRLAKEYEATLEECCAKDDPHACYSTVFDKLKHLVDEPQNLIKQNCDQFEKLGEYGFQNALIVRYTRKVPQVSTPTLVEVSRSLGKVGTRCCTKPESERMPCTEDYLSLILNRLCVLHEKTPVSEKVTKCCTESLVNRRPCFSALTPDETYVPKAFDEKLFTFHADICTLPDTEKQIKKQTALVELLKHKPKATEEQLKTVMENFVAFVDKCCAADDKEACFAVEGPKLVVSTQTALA

对照 (antibody) showed an OD (450 nm, ref 630 nm) (DNP-BSA [1]) of 0.229 OD, an OD (450 nm, ref 630 nm) (DNP-BSA [2]) of 2.37 OD and an OD (450 nm, ref 630 nm) (DNP-BSA [3]) of 1.53 OD. The OD (450 nm, ref 630 nm) (DNP-BSA [4]) was 0.949 OD, the OD (450 nm, ref 630 nm) (DNP-BSA [5]) was 0.375 OD and the Kd (DNP-BSA [6]) was 2.57 nM. For the same molecule, the koff (DNP-BSA [6]) was 0.00055 s⁻¹ and the kon (DNP-BSA [6]) was 214000 M⁻¹ s⁻¹.

B1: Anti-DNP-6G1mut2 (antibody, mouse IgG1, V domains shown)
VH: EVQLQESGPSLVKPSQTLSLTCSVTGDSIITGYWNWIRKFPGNKLEFMGYISYSGRTYYNPSLKSRVSITRDTSKNQYYLQLSSVTTEDAATYYCTRWTTAYFGIDSWGQGISVTVSS
VL: QAVVTQESALTTSPGGTVILTCRSSTGAVTTSNNANWVQEKPDHLFTGLIGGTSNRAPGVPVRFSGSLIGDKAALTITGAQTEDDAMYFCALWYSTHYVFGGGTKVTVLG
Molecule B1 has an OD (450 nm, ref 630 nm) (DNP-BSA [1]) of 0.516 OD, an OD (450 nm, ref 630 nm) (DNP-BSA [2]) of 2.28 OD and an OD (450 nm, ref 630 nm) (DNP-BSA [3]) of 2.17 OD. For the same molecule, the OD (450 nm, ref 630 nm) (DNP-BSA [4]) was 1.61 OD, the OD (450 nm, ref 630 nm) (DNP-BSA [5]) was 0.987 OD and the Kd (DNP-BSA [6]) was 0.287 nM. It also gave a koff (DNP-BSA [6]) of 0.00039 s⁻¹ and a kon (DNP-BSA [6]) of 1.36e+06 M⁻¹ s⁻¹.

B2: Anti-DNP-6G1mut1 (antibody, mouse IgG1, V domains shown)
VH: EVQLQESGPSLVKPSQTLSLTCSVTGDSIITGYWNWIRKFPGNKLEFMGYISYSGRTYYNPSLKSRVSITRDTSKNQYYLQLSSVTTEDAATYYCTRWTTAYFGIDSWGQGISVTVSS
VL: QAVVTQESALTTSPGGTVILTCRSSTGAVTTSNNANWVQEKPDHLFTGLIGGTSNRAPGVPVRFSGSLIGDKAALTITGAQTEDDAMYFCAIWYSTHYVFGGGTKVTVLG
Work on B2 yielded an OD (450 nm, ref 630 nm) (DNP-BSA [1]) of 0.504 OD, an OD (450 nm, ref 630 nm) (DNP-BSA [7]) of 0.991 OD and an OD (450 nm, ref 630 nm) (DNP-BSA [2]) of 2.25 OD. It also gave an OD (450 nm, ref 630 nm) (DNP-BSA [8]) of 2.26 OD, an OD (450 nm, ref 630 nm) (DNP-BSA [9]) of 2.21 OD and an OD (450 nm, ref 630 nm) (DNP-BSA [10]) of 2.24 OD. The OD (450 nm, ref 630 nm) (DNP-BSA [11]) was 0.977 OD, the OD (450 nm, ref 630 nm) (DNP-BSA [12]) was 0.985 OD and the OD (450 nm, ref 630 nm) (DNP-BSA [3]) was 1.95 OD. For the same molecule, the OD (450 nm, ref 630 nm) (DNP-BSA [4]) was 1.69 OD, the OD (450 nm, ref 630 nm) (DNP-BSA [5]) was 0.96 OD and the Kd (DNP-BSA [6]) was 0.168 nM. For the same molecule, the koff (DNP-BSA [6]) was 0.00042 s⁻¹ and the kon (DNP-BSA [6]) was 2.5e+06 M⁻¹ s⁻¹.
